The values that follow come from the DeepSol protein solubility set.

This series is described as follows: soluble on expression in E. coli; label from the status in PepcDB or PDB records.
For the sequence “MEITNPILTGFNPDPSLCRQGEDYYIATSTFEWFPGVRIYHSRDLKNWSLVSTPLDRVSMLDMKGNPDSGGIWAPCLSYADGKFWLLYTDVKIVDSPWKNGRNFLVTAPSIEGPWSEPIPMGNGGFDPSLFHDDDGRKYYIYRPWGPRHHSNPHNTIVLQAFDPQTGTLSPERKTLFTGTPLCYTEGAHLYRHAGWYYLMAAEGGTSYEHAVVVLRSKNIDGPYELHPDVTMMTSWHLPENPLQKSGHGSLLQTHTGEWYMAYLTSRPLRLPGVPLLASGGRGYCPLGRETGIARIEWRDGWPYVEGGKHAQLTVKGPQVAEQPAAVPGNWRDDFDASSLDPELQTLRIPFDDTLGSLTARPGFLRLYGNDSLNSTFTQSTVARRWQHFAFRAETRMEFSPVHFQQSAGLTCYYNSKNWSYCFVDYEEGQGRTIKVIQLDHNVPSWPLHEQPIPVPEHAESVWLRVDVDTLVYRYSYSFDGETWHTVPVTYEAWKLSDDYIGGRGFFTGAFVGLHCEDISGDGCYADFDYFTYEPV”, the “soluble on expression in E. coli” value is given as “soluble”.

As to “MSLTGMLKRKVIVVSGVGPGLGTTLAHRCARDGADLVLAARSAERLDDVAKQIIDTGRRAVAVRTDITDDDDVSNLVQATLAAYGKADVLINNAFRVPSMKPLAGTTFEHIRDAIELSALGTLRLIQAFTPALAQSHGAIVNVNSMVIRHSQPKYGTYKMAKSVLLAMSHSLATELGEQGIRVNSVAPGYIWGDTLKSYFDHQAGKYGTTVDQIYQATAANSDLKRLPTEDEVASAILFLASDLASGITGQTLDVNCGEYHTEGHHHHHH”, the “soluble on expression in E. coli” value is “soluble”.

For “MHERHRFWQRALRLLSLGVPREASSALFGHDHSLQQETWLRSLQKEKQHIIDWHDRLTDIPFVIIDMETTGFSPEQGDEILAMAAAKTVGGVVTDAYMTLVKPEKPIPEHISALTGIEAKDVVFAPPLAEALRTFVPFIAAGVLIGYHIGHDLAFLRHALWRHYRQKWSGRFVDLQPMMTLIGHSCPTFDDALACYGICCPRRHTADGDVEAMAKLWAILLDEFRQRGIDTLHDLYAALSRC”, the “soluble on expression in E. coli” value was “not soluble”.

For the sequence “SNAMQAIRSILVVIEPDQLEGLALKRAQLIAGVTQSHLHLLVCEKRRDHSAALNDLAQELREEGYSVSTNQAWKDSLHQTIIAEQQAEGCGLIIKQHFPDNPLKKAILTPDDWKLLRFAPCPVLMTKTARPWTGGKILAAVDVGNNDGEHRSLHAGIISHAYDIAGLAKATLHVISAHPSPMLSSADPTFQLSETIEARYREACRTFQAEYGFSDEQLHIEEGPADVLIPRTAQKLDAVVTVIGTVARTGLSGALIGNTAEVVLDTLESDVLVLKPDDIIAHLEELASKE”, the “soluble on expression in E. coli” value was “soluble”.

In the case of “MTTPLISIRNLCVDYITDAGDVRACNNVSFDLAPGEVFGLAGESGCGKSTVAFSLMRLHKPPAFITGGEVIFNGEDILKYSDERMQAFRWKEMSMVFQSAMNALNPVLTMEEQFCDVITRHTNMTREQAKRRAEGLLEIVDIHPSRLNDYPHQFSGGMRQRLVIAIALALNPKMIIMDEPTTALDVVVQREILQKIYALKEEFGFSILFITHDLSLMVEFSDRIGIMYSGELIEVAPSKQILETPYHPYTKGLGSSFPPLTGPKTKLTGIPGNPLNLLDIPQGCRFQARCDRVHEACTKVPTVLRQIEHGRFSNCHLYTQSNATIKR”, the “soluble on expression in E. coli” value is recorded as “not soluble”.

Regarding “IQLQQATQLHFSELGKLLDDLRVEKHINEVRLKLTPSFAFKWLVPKLESFQLENPEIQVQIFAEGALVNSDLKDYDVAIDYGLHPYRDHDAELILDEKLLPVMSPKYLEDHRWLKTPFGDQTSSMSANQWQAATLLHDAMPWEKATRDYEWLYWASAMGFDFKTDVGHFFNRTDMAMSAAEAGVGIAMARMALIEDELTTKRLVSPFAPIPANAGYYLIMNTRSQSTERFREWLLKQIESRR”, the “soluble on expression in E. coli” value is reported as “not soluble”.

As to “MMNASTKFSDNYDVKEELGKGAFSVVRRCVHKTTGLEFAAKIINTKKLSARDFQKLEREARICRKLQHPNIVRLHDSIQEESFHYLVFDLVTGGELFEDIVAREFYSEADASHCIQQILESIAYCHSNGIVHRDLKPENLLLASKAKGAAVKLADFGLAIEVNDSEAWHGFAGTPGYLSPEVLKKDPYSKPVDIWACGVILYILLVGYPPFWDEDQHRLYAQIKAGAYDYPSPEWDTVTPEAKSLIDSMLTVNPKKRITADQALKVPWICNRERVASAIHRQDTVDCLKKFNARRKLKAAISAVKMVTRMSGVLRTSDSTGSVASNGSTTHDASQVAGTSSQPTSPAAEGAILTTMIATRNLSNLGRNLLNKKEQGPPSTIKESSESSQTIDDNDSEKGGGQLKHENTVVRADGATGIVSSSNSSTASKSSSTNLSAQKQDIVRVTQTLLDAISCKDFETYTRLCDTSMTCFEPEALGNLIEGIEFHRFYFDGNRKNQVHTTMLNPNVHIIGEDAACVAYVKLTQFLDRNGEAHTRQSQESRVWSKKQGRWVCVHVHRSTQPSTNTTVSEF”, the “soluble on expression in E. coli” value is recorded as “not soluble”.

As for “MVSDIVLEVQSLHVYYGAIHAIKGIDLKVPRGQIVTLIGANGAGKTTTLSAIAGLVRAQKGKIIFNGQDITNKPAHVINRMGIALVPEGRRIFPELTVYENLMMGAYNRKDKEGIKRDLEWIFSLFPRLKERLKQLGGTLSGGEQQMLAIGRALMSRPKLLMMDEPSLGLAPILVSEVFEVIQKINQEGTTILLVEQNALGALKVAHYGYVLETGQIVLEGKASELLDNEMVRKAYLGVA”, the “soluble on expression in E. coli” value is “soluble”.

Take “MITCLPLLAGEGARRKGDIGMRNKNKRLAQYATELRRNMTDAEYALWYHLRNKLFCGIRFNRQVIIGHYIVDFCSRKLKLVIELDGIQHVEQEQYDLERTKFLTAQGYKVIRFWNDEVLKNIDNVLEAIYVEIEHLSPPHFGSSPHKWVEPRLEVLK”: the “soluble on expression in E. coli” value is “not soluble”.

With “MSSLTKQFVITQSVKNVSSIADGGEHVTPSEIHYGTEWYMRIKRDNGFMSFGLYCPMTGKTTNWSIVADIRVELMPLTGMWKSVECECKIAKSPSLISEVLRSTIMPWGRMMTNYVVDDALMIEVFVTIKSMTGFERPYNLRSFDESMEEFSDVVLLVGEKKFYVLRKYLAAQSKYFKALLLGSFEEGKSSEVTLTSIDPNDFQFFLEVLYGDSAINDLTVEGILHIADMYDTPMVVRKCEEFLIKGTKLPAKKKLQMAFRYKMENFMVLFFGNIQRKVFNFFRETTTLN”, the “soluble on expression in E. coli” value was “not soluble”.

Regarding “MAEYKFYYFNGRGLGDVSRQLFALSGTKYEDIRIEHADWPAQKPKMPFGQMPVLELSSGLQIPQSMAIARYLAKKFGYAGKTDEEAALADALIDQFKDFYAEIKPYYYAKIGVLQNDTEEEKKKTLIPARDKFLTIIGKFLKLSISGFLFSGGLTYADLMICDNMRTLIAWWPEYLNEYPDIKAWYQKVDGIPEIRKHLESSPDKGF”, the “soluble on expression in E. coli” value is “soluble”.

Take “MSVYTTAQLLAVNEKKFKFDPLFLRIFFRETYPFSTEKVYLSQIPGLVNMALYVSPIVSGKVIRSRGGSTSEFTPGYVKPKHEVNPLMMTLRLPDEDPQNVADPVYRRRRIILQNMKDEELAIAQVEEKQAVSAVLSGKYTMTGEAFEPVEVDMGRSAGNNIVQAGAAAWSTRDKETYDPTDDIEAYALNARGVVNIIVFDPKGWALFRSFKAVEKKLDTRRGSNSELETAVKDLGMAVSYKGMFGDVAIVVYSGQYVENDVKKNYLPDLTMVLGNTQARGLRTYGCILDADAQREGIDAST”: the “soluble on expression in E. coli” value is on record as “not soluble”.

Take “MSLPPILTSQIGPDSIELRLLVAADLEYFNGHFPEQAVLPGVTQLDWAVRLGCEHFGYSAAVANLEVLKFQQLILPGQEVTLVISHNATKEKLTFAYSDGDHRYASGRISFASKQDDGLEHHHHHH”: the “soluble on expression in E. coli” value was “not soluble”.

As to “MASNSRSSISPWTFSQNKMFERALAVYDKDTPDRWHNVAKAVGGKTVEEVKRHYDILVEDLINIETGRVPLPNYKTFESNSRSINDFDTRYITKYLYMMLSIYFDNHSSDFEKFSQKVLVSYISLV”, the “soluble on expression in E. coli” value was “soluble”.

On to “GMSDTVLTGLLDTVWQQFGRGTKDRHHPARHPTLATIGTDGPDLRTLVLRAASHAEATLEFHTDAASPKVAHIRRDARVAIHIWIPKASLQVRAKAIAKILPGDPNLFAQLPEAARMNYQGPVPGTPLPAEPDATPNRFTRLICHLSEIDVLHLTTPHQRAVYTAPDWRGIWVSP”, for which the “soluble on expression in E. coli” value is “soluble”.

With “MSAAADRLNLTSGHLNAGRKRSSSSVSLKAAEKPFKVTVIGSGNWGTTIAKVVAENCKGYPEVFAPIVQMWVFEEEINGEKLTEIINTRHQNVKYLPGITLPDNLVANPDLIDSVKDVDIIVFNIPHQFLPRICSQLKGHVDSHVRAISCLKGFEVGAKGVQLLSSYITEELGIQCGALSGANIATEVAQEHWSETTVAYHIPKDFRGEGKDVDHKVLKALFHRPYFHVSVIEDVAGISICGALKNVVALGCGFVEGLGWGNNASAAIQRVGLGEIIRFGQMFFPESREETYYQESAGVADLITTCAGGRNVKVARLMATSGKDAWECEKELLNGQSAQGLITCKEVHEWLETCGSVEDFPLFEAVYQIVYNNYPMKNLPDMIEELDLHED”, the “soluble on expression in E. coli” value is “soluble”.

For the sequence “MPTNVTAEYLAAEEEYRNAKTIPEKIRALEKMYALVPKHKGTEKLRLQIKRRLAELRRELEKQRQQRKGGGYSLAVKKEGAAQIVLVGLPNVGKSELLRALTGVDVESADYPFTTTEPVPAMMNYKDVQIQLVEVPGLLEGAALGKGMGPQLLAVIRNADAIAIVIDLSEDPIKQMEILLREFERAGIKVNKRRPRVEIRKTPSGGIVINGAENIKGDLSEVMRMLREEKIHSAEITVKEPVTLEEFADALDDSLVWKKAIIIANKGDSPGSKENYHKLINKYGEKFKIVPVSAKKRINLEAVKEAIYDVAEIIRVFTKSPGEEPAYPPIALKRGATVMDVAERIHKDLVKNFRYARVWGKSVKFPGQRVGPDHVLEDGDIVEIHAK”, the “soluble on expression in E. coli” value is on record as “soluble”.

On to “MGSDKIHHHHHHMPHSVPPLTDIGPLPTASTVRTVVFSDFDETYLAHSGTPEQVRSRQALENYLEDAGERHGLLFGWVTGSSLSSVLGKARRHGLRFLPHFIACSLGTELHVISEAGIQPEPGWQRRMLTTGEHLEGLAEEAFRELRTRGVPLVPQSCRAPGSRVISYYYFAQDPERDARQLALIRRTADRLSLGVNLSRCNPAAGDPDDCYDVDFLPRDCGKRHIVEYICRLYAVSEADAFAFGDSGNDLEMLTAVGRGLLVGNCTEEARARYPQVSARSHADAILSELRGVLP”, for which the “soluble on expression in E. coli” value is “not soluble”.

For the sequence “MIVTTAGRTNKEMTDYANEVAAELNASFVKRNDIPVHKLHEQYEQDVLVVGKNRLAIYPKGTEESFFFHPNSAMFRVKRLMRGEHDPFVQATQLERGMTVLDCTLGMASDSIVASYVVGESGKVTGLEGNEYMAYIMENGLKTWSSSVSEIDEAMQRIQVKQTEHFSFLAQCEDNSYDVVYLDPMFEETVIESDGIKGLKHFALYHDITDETIAEAKRVARKRVVLKDHFRSSRFEKHNFYVYKRKSAKFHFGVIDPC”, the “soluble on expression in E. coli” value is listed as “not soluble”.

For “MSLRAELNQGLIDFLKASPTPFHATASLARRLEAAGYRRLDERDAWHTETGGRYYVTRNDSSLIAIRLGRRSPLESGFRLVGAHTDSPCLRVKPNPEIARNGFLQLGVEVYGGALFAPWFDRDLSLAGRVTFRANGKLESRLVDFRKAIAVIPNLAIHLNRAANEGWPINAQNELPPIIAQLAPGEAADFRLLLDEQLLREHGITADVVLDYELSFYDTQSAAVVGLNDEFIAGARLDNLLSCHAGLEALLNAEGDENCILVCTDHEEVGSCSHCGADGPFLEQVLRRLLPEGDAFSRAIQRSLLVSADNAHGVHPNYADRHDANHGPALNGGPVIKINSNQRYATNSETAGFFRHLCQDSEVPVQSFVTRSDMGCGSTIGPITASQVGVRTVDIGLPTFAMHSIRELAGSHDLAHLVKVLGAFYASSELEGHHHHHH”, the “soluble on expression in E. coli” value is reported as “soluble”.
